Laboratory results reported in US10676765B2, “Methods for producing 3-hydroxy-3-methylbutyric acid” (Global Bioenergies, priority 2015, dated 2020).

How the values were obtained:
[1] = Conversion of 3-hydroxyisovaleryl-CoA and ADP into 3-hydroxyisovaleric acid and ATP, phosphate butyryltransferase from Enterococcus faecalis with butyrate kinases; assay type: biochemical; settings: 4 mM 3-hydroxyisovaleryl-CoA, 4 mM ADP, 0.2 mg/ml each enzyme, 20 min, 30° C.
Method: (§1) The enzymatic assays were conducted in a total reaction volume of 0.2 ml.
(§2) The standard reaction mixture contained:
(§3) 50 mM potassium phosphate buffer pH 7.5
4 mM 3-hydroxyisovaleryl-CoA
(§4) 0.2 mg/ml of purified phosphate butyryltransferase from Enterococcus faecalis
(§5) 0.2 mg/ml of purified butyrate kinase from Lactobacillus casei or Geobacillus sp.
A series of controls were performed in parallel (Assays C-H Table 5).
The assays were then incubated for 20 min with shaking at 30° C.
(§6) After an incubation period, the reactions were stopped by heating the reaction medium 4 min at 90° C. The samples were centrifuged, filtered through a 0.22 μm filter and the clarified supernatants were transferred into a clean vial for further analysis. The consumption of ADP and 3-hydroxyisovaleryl-CoA, and the formation of ATP and 3-hydroxyisovaleric acid and free coenzyme A (CoA-SH) were followed by HPLC analysis according to the methods described in Example 10.

[2] = Conversion of 3-methylcrotonyl-CoA and ADP into 3-methylcrotonic acid and ATP, phosphate butyryltransferase from Enterococcus faecalis with butyrate kinases; assay type: biochemical; settings: 4 mM 3-methylcrotonyl-CoA, 4 mM ADP, 0.2 mg/ml each enzyme, 20 min, 30° C.
Method: as §1, §2, §3
4 mM 3-methylcrotonyl-CoA
as §4, §5
A series of controls was performed in parallel (Assays C-H Table 10).
Assays were then incubated for 20 min with shaking at 30° C.
as §6, with “3-methylcrotonyl-CoA” for “3-hydroxyisovaleryl-CoA,”, “3-methylcrotonic” for “3-hydroxyisovaleric”, “10 and Example 12.” for “10.”

B1: phosphate butyryltransferase from Enterococcus faecalis: phosphate butyryltransferase (EC 2.3.1.19) from Enterococcus faecalis MTUP9, Uniprot A0A038BNC2 (protein, listed as Enterococcus faecalis)
chain: MITVSIAGGSQPEILQLVKKALKEAEQPLQFIVFDTNENLDTENLWKYVHCSDEATVAQEAVSLVATGQAQILLKGIIQTHTLLKEMLKSEHQLKNKPILSHVAMVELPAGKTFLLTDCAMNIAPTQATLIEIVENAKEVAQKLGLHHPKIALLSAAENFNPKMPSSVLAKEVTAHFNGQQEATVFGPLSLDLATSEEAVAHKRYSGPIMGDADILVVPTIDVGNCLYKSLTLFGHAKVGGTIVGTKVPVVLTSRSDSTESKFHSLRFAMRQV
modifications: MTUP9
notes: phosphate butyryltransferase (EC 2.3.1.19) from Enterococcus faecalis MTUP9, Uniprot A0A038BNC2
[1]
  production of 3-hydroxyisovaleric acid and ATP: significant production of 3-hydroxyisovaleric acid, without simultaneous generation of ATP
[2]
  production of 3-methylcrotonic acid and ATP: significant production of 3-methylcrotonic acid without simultaneous generation of ATP
